Like-named read-outs stand apart in the source and are kept apart here.
T1: canine TGFβ3 (canine, UniProt A0A8I3S1P1 346-457)
T1 sequence: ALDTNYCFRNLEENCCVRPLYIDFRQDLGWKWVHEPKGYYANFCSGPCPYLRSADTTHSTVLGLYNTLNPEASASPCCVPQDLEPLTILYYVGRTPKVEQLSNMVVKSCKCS

T2: canine TGFβ2 (canine, UniProt A0A8I3PZZ6 331-442)
T2 sequence: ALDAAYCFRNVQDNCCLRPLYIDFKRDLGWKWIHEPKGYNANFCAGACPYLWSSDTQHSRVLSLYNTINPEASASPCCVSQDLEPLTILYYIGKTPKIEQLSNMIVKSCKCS

T3: TGFβ3 (R&D Systems) (Homo sapiens (Human), UniProt P10600 301-412, Active TGFβ3 is a disulfide-linked homodimer of this chain; one copy is given.)
T3 construct: also called TGFB3
T3 sequence: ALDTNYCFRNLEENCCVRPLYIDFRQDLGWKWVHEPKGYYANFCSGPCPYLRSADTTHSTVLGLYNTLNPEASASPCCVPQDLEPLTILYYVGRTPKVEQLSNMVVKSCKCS

T4: TGFβ2 (R&D Systems)
T4 construct: also called TGFB2
T4 sequence (P61812 303-414, species assumed, looked up): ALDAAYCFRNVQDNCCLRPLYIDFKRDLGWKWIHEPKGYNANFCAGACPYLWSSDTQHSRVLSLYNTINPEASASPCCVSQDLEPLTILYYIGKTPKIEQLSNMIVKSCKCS


Experiments:
canine TGFβ3 = molecular target: T1, canine TGFβ3; test: SPR
canine TGFβ2 = molecular target: T2, canine TGFβ2; test: SPR
canine TGFβ1 = canine TGFβ1 (canine, UniProt P54831 279-390, limits assumed); test: SPR, TGFβ on chip
canine TGFβ1, sequence (P54831 279-390 limits assumed): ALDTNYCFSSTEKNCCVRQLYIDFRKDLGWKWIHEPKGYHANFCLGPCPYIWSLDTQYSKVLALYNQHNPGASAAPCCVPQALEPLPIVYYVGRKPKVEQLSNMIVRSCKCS
From the text: To avoid affinity differences associated with differential surface preparation that can occur when immobilizing antibodies to surfaces, TGFβ1, TGFβ2, and TGFβ3 (R&D Systems) were directly conjugated to the individual surface. Immobilization was obtained by amine coupling […] using N-hydroxysuccinimide (NHS)/1-Ethyl-3-(3-dimethylaminopropyl) carbodiimide (EDC) chemistry. Chips were quenched with ethanolamine and the affinity with which all candidate mAbs bound to the immobilized TGFβ was evaluated. All curves were fit to a 1:1 model. Affinities <10⁻¹¹ are below the lower limit of quantitation of detection for the instrument.

TGFβ1 (R&D Systems) [1] = molecular target: T5, TGFβ1 (R&D Systems); test: SPR full titration
T5 construct: also called TGFB1
T5 sequence (P01137 279-390): as the sequence (P54831 279-390 limits assumed) above

TGFβ3 (R&D Systems) [2] = molecular target: T3, TGFβ3 (R&D Systems); test: SPR full titration
TGFβ2 (R&D Systems) = molecular target: T4, TGFβ2 (R&D Systems); test: SPR full titration
TGFβ1 (R&D Systems) [3] = molecular target: T5, TGFβ1 (R&D Systems); test: cell-based or functional assay
TGFβ3 (R&D Systems) [4] = molecular target: T3, TGFβ3 (R&D Systems); test: cell-based or functional assay
TGFβ1 (R&D Systems) [5] = molecular target: T5, TGFβ1 (R&D Systems); test: cell-based or functional assay; remark: listed apart in the source
TGFβ3 (R&D Systems) [6] = molecular target: T3, TGFβ3 (R&D Systems); test: SPR

binding result (canine TGFβ3)	binding result (canine TGFβ2)	Kd (canine TGFβ1) [nM]	CMVIC pSmad-3, IC50 (TGFβ1 (R&D Systems) [5]) [nM]	binding result (TGFβ3 (R&D Systems) [6])	Binder	further results
no binding	no binding	2190			Can04H09 VH2/VL1 (antibody, V domains shown) VH: EVQLVQSAAEVKKPGASVKVSCKTSGYSFTSSWMNWVQQAPGKGLDWMGQIYPGDGDTNYNGKFKGRVTLTADKSTSTAYMELSSLRSEDAAVYYCARHYDGSTDYWGQGTLVTVSS VL: DIVMTQNPLSLSVSPGETASISCRASENIYSNLAWFRQKPGQSPQRLIYAATNLADGVPDRFSGSGSGTDFTLRISRVEADDTGVYYCQHFWGTPYTFGQGTK	
			11.9	no binding	fel-TGFβ1_hetero-chimera-2 (antibody) heavy: EVQLVESGGGVVQPGRSLRLSCAASGFTFSSYGMHWVRQAPGKELEWVAVISYDGSIKYYADSVKGRFTISRDNSKNTLYLQMNSLRAEDTAVYYCARTGEYSGYDTDPQYSWGQGTTVTVSSASTTAPSVFPLAPSCGTTSGATVALACLVLGYFPEPVTVSWNSGALTSGVHTFPAVLQASGLYSLSSMVTVPSSRWLSDTFTCNVAHPPSNTKVDKTVRKTDHPPGPKPCDCPKCPPPEAAGAPSIFIFPPKPKDTLSISRTPEVTCLVVDLGPDDSDVQITWFVDNTQVYTAKTSPREEQFNSTYRVVSVLPILHQDWLKGKEFKCKVNSKSLPSPIERTISKAKGQPHEPQVYVLPPAQEELSRNKVSVTCLIKSFHPPDIAVEWEITGQPEPENNYRTTPPQLDSDGTYFVYSKLSVDRSHWQRGNTYTCSVSHEALHSHHTQKSLTQSPGK light: EIQMTQSPSSLSASPGDRVTITCRASQGIGDDLGWYQQKPGKVPKLLIYGTSTLQSGVPSRFSGSGSGTDFTLTISSLEPEDAATYYCLQDSNYPLTFGGGTKRSDAQPSVFLFQPSLDELHTGSASIVCILNDFYPKEVNVKWKVDGVVQNKGIQESTTEQNSKDSTYSLSSTLTMSSTEYQSHEKFSCEVTHKSLASTLVKSFQRSECQRE	
			30.1	no binding	fel-TGFβ1_hetero-chimera-1 (antibody) heavy: DVQLVESGGDLVKPGGSLRLTCVASGFTFSSYGMHWVRQAPGKELEWVAVISYDGSIKYYADAVKGRFTISRDNAKNTLYLQMNSLKTEDTATYYCARTGEYSGYDTDPQYSWGQGTTVTVSSASTTAPSVFPLAPSCGTTSGATVALACLVLGYFPEPVTVSWNSGALTSGVHTFPAVLQASGLYSLSSMVTVPSSRWLSDTFTCNVAHPPSNTKVDKTVRKTDHPPGPKPCDCPKCPPPEAAGAPSIFIFPPKPKDTLSISRTPEVTCLVVDLGPDDSDVQITWFVDNTQVYTAKTSPREEQFNSTYRVVSVLPILHQDWLKGKEFKCKVNSKSLPSPIERTISKAKGQPHEPQVYVLPPAQEELSRNKVSVTCLIKSFHPPDIAVEWEITGQPEPENNYRTTPPQLDSDGTYFVYSKLSVDRSHWQRGNTYTCSVSHEALHSHHTQKSLTQSPGK light: EIVLTQSPSSLSASVGDRVTITCRASQGIGDDLGWYQQKPGKAPILLIYGTSTLQSGVPSRFSGSGSGTDFTLTINSLQPEDFATYYCLQDSNYPLTFGGGTKRSDAQPSVFLFQPSLDELHTGSASIVCILNDFYPKEVNVKWKVDGVVQNKGIQESTTEQNSKDSTYSLSSTLTMSSTEYQSHEKFSCEVTHKSLASTLVKSFQRSECQRE	

Second part, the binder before the results:

Binder	binding result (canine TGFβ3)	binding result (canine TGFβ2)	Kd (canine TGFβ1) [nM]	CMVIC pSmad-3, IC50 (TGFβ1 (R&D Systems) [5]) [nM]	binding result (TGFβ3 (R&D Systems) [6])	further results
Can04H09 VH3/VL1 (antibody, V domains shown) VH: EVQLVQSAAEVKKPGASVKVSCKTSGYTFTSSWMNWVQQAPGAGLDWMGQIYPGDGDTNYNGKFKGRVTLTADTSTSTAYMELSSLRAEDTAVYYCARHYDGSTDYWGQGTLVTVSS VL: DIVMTQNPLSLSVSPGETASISCRASENIYSNLAWFRQKPGQSPQRLIYAATNLADGVPDRFSGSGSGTDFTLRISRVEADDTGVYYCQHFWGTPYTFGQGTK	no binding	no binding	3980			
Can04H09 VH1/VL1 (antibody, V domains shown) VH: EVQLVQSGAEVKKPGASVKVSCKTSGYTFISSWMNWVRQAPGAGLDWMGQIYPGDGDTNYNGKFKGRVTLTADTSTSTAYMELSSLRAGDIAVYYCARHYDGSTDYWGQGTLVTVSS VL: DIVMTQNPLSLSVSPGETASISCRASENIYSNLAWFRQKPGQSPQRLIYAATNLADGVPDRFSGSGSGTDFTLRISRVEADDTGVYYCQHFWGTPYTFGQGTK	no binding	no binding	284			
H1chimK (antibody, also called canHcLb-VH1/chiHcLb-VL) heavy: EVQLVQSGAEVKKPGASVKVSCKTSGYTFITYWMNWVRQAPGAGLDWMGQIFPASGSTNYNEMFEGRVTLTADTSTSTAYMELSSLRAGDIAVYYCARGDGNYALDAMDYWGQGTLVTASTTAPSVFPLAPSCGSTSGSTVALACLVSGYFPEPVTVSWNSGSLTSGVHTFPSVLQSSGLYSLSSMVTVPSSRWPSETFTCNVAHPASKTKVDKPVPKRENGRVPRPPDCPKCPAPEAAGAPSVFIFPPKPKDTLLIARTPEVTCVVVDLDPEDPEVQISWFVDGKQMQTAKTQPREEQFNGTYRVVSVLPIGHQDWLKGKQFTCKVNNKALPSPIERTISKARGQAHQPSVYVLPPSREELSKNTVSLTCLIKDFFPPDIDVEWQSNGQQEPESKYRTTPPQLDEDGSYFLYSKLSVDKSRWQRGDTFICAVMHEALHNHYTQESLSHSPGK light: DIVLTQTPASLAVSLGQRATISCRASESVDSYGNSFMHWYQQKSGQPPKLLIYLASNLESGVPARFSGSGSRTDFTLTIDPVEADDAATYYCQQNNEDPLTFGAGTKRNDAQPAVYLFQPSPDQLHTGSASVVCLLNSFYPKDINVKWKVDGVIQDTGIQESVTEQDKDSTYSLSSTLTMSSTEYLSHELYSCEITHKSLPSTLIKSFQRSEC						Kd (TGFβ1 (R&D Systems) [1]): 6.52 nM; Kd (TGFβ3 (R&D Systems) [2]): 1.03 nM; Kd (TGFβ2 (R&D Systems)): 0.683 nM
H2chimK (antibody, also called canHcLb-VH2/chiHcLb-VL) heavy: EVQLVQSAAEVKKPGASVKVSCKTSGYSFTTYWMNWVQQAPGKGLDWMGQIFPASGSTNYNEMFEGRVTLTVDTSTSTAYMELSSLRAEDAAVYYCARGDGNYALDAMDYWGQGTLVTASTTAPSVFPLAPSCGSTSGSTVALACLVSGYFPEPVTVSWNSGSLTSGVHTFPSVLQSSGLYSLSSMVTVPSSRWPSETFTCNVAHPASKTKVDKPVPKRENGRVPRPPDCPKCPAPEAAGAPSVFIFPPKPKDTLLIARTPEVTCVVVDLDPEDPEVQISWFVDGKQMQTAKTQPREEQFNGTYRVVSVLPIGHQDWLKGKQFTCKVNNKALPSPIERTISKARGQAHQPSVYVLPPSREELSKNTVSLTCLIKDFFPPDIDVEWQSNGQQEPESKYRTTPPQLDEDGSYFLYSKLSVDKSRWQRGDTFICAVMHEALHNHYTQESLSHSPGK light: DIVLTQTPASLAVSLGQRATISCRASESVDSYGNSFMHWYQQKSGQPPKLLIYLASNLESGVPARFSGSGSRTDFTLTIDPVEADDAATYYCQQNNEDPLTFGAGTKRNDAQPAVYLFQPSPDQLHTGSASVVCLLNSFYPKDINVKWKVDGVIQDTGIQESVTEQDKDSTYSLSSTLTMSSTEYLSHELYSCEITHKSLPSTLIKSFQRSEC						Kd (TGFβ1 (R&D Systems) [1]): 16.3 nM; Kd (TGFβ3 (R&D Systems) [2]): 2.26 nM; Kd (TGFβ2 (R&D Systems)): 6.62 nM
fel04H09-17 (antibody, V domains shown) VH: QVLLVQSGAEVRRPGASVKIFCKASGYSFTSSWMNWLRQAPAQGFEWMGQIYPGDGDTNYNGKFKGRLTLTADTSTDTAYMELSSLRSADTAVYYCARHYDGSTDYWGHGTIVTVSS VL: AITMTQSPGSLAGSPGQQVTMNCRASENIYSNLAWYQQKPGQHPKLLIYAATNLADGVPDRFSGSGSGTDFTLTISNLQAEDVASYYCQHFWGTPYTFGGGT						CMVIC pSmad-3, IC50 (TGFβ1 (R&D Systems) [3]): 0.89 nM; CRFK pSmad-3, IC50 (TGFβ1 (R&D Systems) [3]): 0.73 nM; CMVIC pSmad-3, IC50 (TGFβ3 (R&D Systems) [4]): 39.9 nM; CRFK pSmad-3, IC50 (TGFβ3 (R&D Systems) [4]): 370 nM
fel04H09-24 (antibody, V domains shown) VH: QVLLVQSGAEVRKPGASVKIFCKASGYSFTSSWMNWLRQAPEQGLEWMGQIYPGDGDTNYNGKFKGRLTLTADTSTNTAYMELSSLRSADTAMYYCARHYDGSTDYWGQGALVTVSS VL: DIVMTQTPLSLPVTPGEPASISCRASENIYSNLAWYLQKPGQSPRLLIYAATNLADGVPSRFSGSGSGTDFTLRISSVEADDVGVYYCQHFWGTPYTFGQGT						CRFK pSmad-3, IC50 (TGFβ1 (R&D Systems) [3]): 0.5 nM; CRFK pSmad-3, IC50 (TGFβ3 (R&D Systems) [4]): 30.1 nM
fel-TGFβ1-Spec (antibody, also called FelSL501-VH3-9/FelSL501-VL1-1) heavy: DVQLVESGGDLVKPGGSLRLTCVASGFTFSSYGMHWVRQAPGKELEWVAVISYDGSIKYYADAVKGRFTISRDNAKNTLYLQMNSLKTEDTATYYCARTGEYSGYDTDPQYSWGQGTTVTVSSASTTAPSVFPLAPSCGTTSGATVALACLVLGYFPEPVTVSWNSGALTSGVHTFPAVLQASGLYSLSSMVTVPSSRWLSDTFTCNVAHPPSNTKVDKTVRKTDHPPGPKPCDCPKCPPPEAAGAPSIFIFPPKPKDTLSISRTPEVTCLVVDLGPDDSDVQITWFVDNTQVYTAKTSPREEQFNSTYRVVSVLPILHQDWLKGKEFKCKVNSKSLPSPIERTISKAKGQPHEPQVYVLPPAQEELSRNKVSVTCLIKSFHPPDIAVEWEITGQPEPENNYRTTPPQLDSDGTYFVYSKLSVDRSHWQRGNTYTCSVSHEALHSHHTQKSLTQSPGK light: EIQMTQSPSSLSASPGDRVTITCRASQGIGDDLGWYQQKPGKVPKLLIYGTSTLQSGVPSRFSGSGSGTDFTLTISSLEPEDAATYYCLQDSNYPLTFGGGTKRSDAQPSVFLFQPSLDELHTGSASIVCILNDFYPKEVNVKWKVDGVVQNKGIQESTTEQNSKDSTYSLSSTLTMSSTEYQSHEKFSCEVTHKSLASTLVKSFQRSECQRE				9.03	no binding	

Source: patent US20220119513A1 (ZOETIS SERVICES, published 2022)
